# According to patent US20220380475A1 (SORRISO PHARMACEUTICALS, published 2022):
# Numbering of substitutions follows the chain as printed. In names and notes the source's numbering stands. Where two headings read alike, the source gives them in different places.
# T1: membrane-bound human IL-6R on TF-1 cells (human, UniProt P08887 20-468)
# T1 sequence: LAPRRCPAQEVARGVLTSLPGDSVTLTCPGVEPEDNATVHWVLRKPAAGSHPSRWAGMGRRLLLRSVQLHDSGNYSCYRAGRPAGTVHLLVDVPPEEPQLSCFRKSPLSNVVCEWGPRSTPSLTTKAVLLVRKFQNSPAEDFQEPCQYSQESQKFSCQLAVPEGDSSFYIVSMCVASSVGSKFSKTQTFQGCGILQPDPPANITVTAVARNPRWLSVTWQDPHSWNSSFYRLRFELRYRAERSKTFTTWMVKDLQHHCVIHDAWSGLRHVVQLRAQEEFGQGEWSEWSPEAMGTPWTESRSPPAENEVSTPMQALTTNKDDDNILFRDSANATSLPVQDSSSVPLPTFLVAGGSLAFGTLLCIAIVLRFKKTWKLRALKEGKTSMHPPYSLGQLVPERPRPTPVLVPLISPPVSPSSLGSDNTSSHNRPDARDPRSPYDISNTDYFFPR
# T2: recombinant soluble human IL-6R (human, UniProt P08887 20-365)
# T2 sequence: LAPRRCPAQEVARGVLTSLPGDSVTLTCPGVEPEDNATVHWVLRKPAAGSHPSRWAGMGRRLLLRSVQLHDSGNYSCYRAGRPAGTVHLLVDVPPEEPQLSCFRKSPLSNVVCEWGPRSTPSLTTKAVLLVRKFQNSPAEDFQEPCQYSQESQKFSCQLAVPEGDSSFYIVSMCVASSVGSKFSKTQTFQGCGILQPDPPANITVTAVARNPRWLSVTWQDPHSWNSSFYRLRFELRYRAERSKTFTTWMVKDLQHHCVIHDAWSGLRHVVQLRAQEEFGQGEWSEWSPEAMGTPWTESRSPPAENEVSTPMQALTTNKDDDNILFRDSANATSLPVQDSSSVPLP
# T3: cynomolgus monkey soluble IL-6R (from cynomolgus monkey serum) (cynomolgus monkey, UniProt P08887 20-365 (human entry))
# T3 construct: Natural soluble IL-6R present in diluted normal cynomolgus monkey serum; also called cyno IL6R; cynomolgous sIL-6R
# T3 chain: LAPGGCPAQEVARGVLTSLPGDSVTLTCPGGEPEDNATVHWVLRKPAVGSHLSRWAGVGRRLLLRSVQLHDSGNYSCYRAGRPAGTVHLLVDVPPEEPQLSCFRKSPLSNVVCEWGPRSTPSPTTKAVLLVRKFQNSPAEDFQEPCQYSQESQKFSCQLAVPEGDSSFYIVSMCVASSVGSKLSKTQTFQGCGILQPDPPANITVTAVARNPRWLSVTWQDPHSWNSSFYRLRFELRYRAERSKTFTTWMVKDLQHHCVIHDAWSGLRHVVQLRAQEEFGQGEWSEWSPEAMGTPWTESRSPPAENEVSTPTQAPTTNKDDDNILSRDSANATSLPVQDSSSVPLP
# B1: 7F6 (VHH)
# VHH: EVQLVESGGGLVQAGGSTRLTCLASGSISSINVIGWYRQAPGKQRELVAMIGRGEGANYGDFAKGRFTISRDNSKNTVYLQMNSLKPEDTAVYYCYADYEDRDSPFNGSWGQGTQVTVSS
# notes: also called VIL-7F6; 'Wild type' 7F6; not shown: C-terminal Flag and 6xHis tags from vector pMEK222
# B2: 21E6 (VHH)
# VHH: B1 VHH with Q13L, F106L
# notes: Family-expansion clone related to 7F6 (Q13L and F106L); Expressed from a phagemid vector and purified
# B3: tocilizumab (antibody, part only; not given: constant regions, V domains shown, not shown: another chain or arm of the molecule)
# VH: QVQLQESGPGLVRPSQTLSLTCTVSGYSITSDHAWSWVRQPPGRGLEWIGYISYSGITTYNPSLKSRVTMLRDTSKNQFSLRLSSVTAADTAVYYCARSLARTTAMDYWGQGSLVTVSS
# VL: DIQMTQSPSSLSASVGDRVTITCRASQDISSYLNWYQQKPGKAPKLLIYYTSRLHSGVPSRFSGSGSGTDFTFTISSLQPEDIATYYCQQGNTLPYTFGQGTKVEIK
# B4: ID-75V (VHH)
# VHH: DVQLVESGGGLVQAGGSTRLTCKASGSISNINSINVMAWYRQAPGKQRELVAIIGKGGGTNYADFVKGRFTISRDAAKNTVNLQMNSLKPEDTAVYYCYADYEDHDSPFNASWGQGTQVTVSS
# notes: also called 5G9 + E1D, F29S, R105H
# B5: ID-114V (VHH)
# VHH: B4 VHH with D1E, V81L, N82Y
# notes: E. coli-produced cis/trans potent 5G9 derivative; also called 5G9 + F29S, V81L, N82Y, R105H; not shown: C-terminal FLAG-6xHis
# B6: ID-112V (VHH)
# VHH: B4 VHH with D1E, Q47G, K89R
# notes: E. coli-produced cis/trans potent 5G9 derivative; also called 5G9 + F29S, Q47G, K89R, R105H; not shown: C-terminal FLAG-6xHis
# B7: ID-123V (VHH)
# VHH: B4 VHH with D1E, Q47G, N82Y, K89R, F109H
# notes: E. coli-produced trans-selective 5G9 derivative; E. coli version of ID-142V (lacks E1D); also called 5G9 + F29S, Q47G, N82Y, K89R, R105H, F109H; not shown: C-terminal FLAG-6xHis
# What was measured:
# [1] = target: T1, membrane-bound human IL-6R on TF-1 cells; assay: cell-based or functional assay
# [2] = target: cynomolgus monkey soluble IL-6R (from cynomolgus monkey serum) (cynomolgus monkey); assay: anti-cynomolgus IL-6R gp130 ELISA (competition): 10x diluted cynomolgus serum, 50 ng/mL human IL-6, coated human gp130
# [3] = target: T2, recombinant soluble human IL-6R; assay: gp130 ELISA (competition), parallel human arm: 10 ng/mL human IL-6R, 50 ng/mL human IL-6
# Protocol: (§1) The standard anti-cynomolgus monkey IL-6R gp130 ELISA assay detailed under ‘Potency, neutralisation and inhibition’ above was performed to assay the ICVDs in parallel for their ability to neutralise sIL6R in cynomolgous monkey serum and recombinant purified human sIL6R. Briefly, Maxisorp 96-well plates were coated overnight with 50 μl/well 1 μg/ml gp130 then blocked. ICVDs were serially diluted and mixed 1:1 with 200 ng/ml recombinant human IL-6, then 1:1 with either 20 ng/ml recombinant human sIL-6R or a 5-fold dilution of cynomolgus monkey serum and incubated for 1 hour to allow binding before adding to the gp130-coated plates. Bound cynomolgus monkey IL-6R was detected with 50 μl/well either 0.25 μg/ml (for human IL-6R) or 0.5 μg/ml (for monkey serum) BAF227 and then 50 μl/well 1/1000 Extravidin-HRP and the level of neutralisation by the ICVD of IL-6R binding to IL-6/gp130 was determined
# [4] = target: cynomolgus monkey soluble IL-6R (from cynomolgus monkey serum) (cynomolgus monkey); assay: ratio of gp130 ELISA IC50s on human and cynomolgus sIL-6R
# [5] = target: T1, membrane-bound human IL-6R on TF-1 cells; assay: cell-based or functional assay; remark: listed apart in the source
# [6] = target: T2, recombinant soluble human IL-6R; assay: gp130 ELISA (competition), second assay, 10 min pre-incubation; 20 ng/mL IL6R, 100 ng/mL IL6
# Protocol: (§2) Briefly, Maxisorp 96-well plates were coated overnight with 50 μl/well 0.5 μg/ml gp130 then blocked. ICVDs were serially diluted and mixed 1:1 with 100 ng/ml recombinant human IL-6 then 1:1 with 40 ng/ml recombinant human sIL-6R, and incubated for 1 hour to allow binding before adding to the gp130-coated plates. Bound IL-6R was detected with 50 μl/well 0.250 μg/ml BAF227 and then 50 μl/well 1/1000 diluted Extravidin-HRP and the level of neutralisation by the ICVD of IL-6R binding to IL-6/gp130 was determined.
# (§3) A separate assay was performed on 21E6 and 7F6 using the same protocol as above with the exception that the ICVD/IL-6R/IL-6 where only incubated with shaking for 10 min before being added to the assay plates.
# [7] = target: T2, recombinant soluble human IL-6R; assay: gp130 ELISA (competition): inhibition of human sIL-6R/IL-6 complex binding to coated gp130; 20 ng/mL IL6R, 100 ng/mL IL6
# Protocol: as §2
# Dose response curves were obtained (dose response curves of particular ICVDs illustrated in FIG. 1). […] This was confirmed with curve-fitting software (Graphpad Prism), which fitted 4 parameter curves to the data and calculated the IC50s (Table 4.1, below).
# [8] = target: T3, cynomolgus monkey soluble IL-6R (from …); assay: ratio of gp130 ELISA IC50s on human and cynomolgus sIL-6R
# Protocol: as §1
# [9] = target: T2, recombinant soluble human IL-6R; assay: standard gp130 ELISA (competition); column 'Potency'
# [10] = target: T3, cynomolgus monkey soluble IL-6R (from …); assay: anti-cynomolgus IL-6R gp130 ELISA (competition): 10x diluted cynomolgus serum, 50 ng/mL human IL-6, coated human gp130
# Protocol: as §1
# [11] = target: T1, membrane-bound human IL-6R on TF-1 cells; assay: cell-based or functional assay; remark: listed apart in the source
# [12] = target: T2, recombinant soluble human IL-6R; assay: gp130 ELISA (competition), second assay; reference 7F6
# Protocol: as §2, §3
# [13] = target: recombinant soluble human IL-6R (human) (UniProt P08887); assay: cell-based or functional assay
# [14] = target: membrane-bound human IL-6R on TF-1 cells (human) (UniProt P08887); assay: cell-based or functional assay
# [15] = target: recombinant soluble human IL-6R (human) (UniProt P08887); assay: gp130 ELISA (competition): inhibition of human sIL-6R/IL-6 complex binding to coated gp130; 20 ng/mL IL6R, 100 ng/mL IL6
# [16] = target: recombinant soluble human IL-6R (human) (UniProt P08887); assay: Biacore (SPR): binder fixed to the sensor, soluble human IL-6R flowed over
# [17] = target: recombinant soluble human IL-6R (human) (UniProt P08887); assay: standard gp130 ELISA (competition), Experiment 2; 10 ng/mL IL-6R, 50 ng/mL IL-6
# [18] = target: membrane-bound human IL-6R on TF-1 cells (human) (UniProt P08887); assay: cell-based or functional assay; remark: listed apart in the source
# [19] = target: T2, recombinant soluble human IL-6R; assay: standard gp130 ELISA (competition)
# [20] = target: T2, recombinant soluble human IL-6R; assay: standard gp130 ELISA (competition), Experiment 1; 10 ng/mL IL-6R, 50 ng/mL IL-6
# Protocol: (§4) The inhibitory potency and efficacy (maximal inhibition) of the E. coli-produced 5G9 derivatives were confirmed in vitro in the gp130 ELISA, TF-1 cell and M1 cell functional assays measuring responses mediated via human IL-6R. The gp130 assays follow the standard protocol with a final assay concentration of 10 ng/mL IL-6R and 50 ng/mL IL-6.
# [21] = target: T2, recombinant soluble human IL-6R; assay: cell-based or functional assay
# [22] = target: T1, membrane-bound human IL-6R on TF-1 cells; assay: cell-based or functional assay; remark: listed apart in the source
# [23] = target: T1, membrane-bound human IL-6R on TF-1 cells; assay: cell-based or functional assay; remark: listed apart in the source
# [24] = target: T2, recombinant soluble human IL-6R; assay: Biacore (SPR): ICVD fixed to the sensor, soluble human IL-6R flowed over
# Excerpt: The binding kinetics of the trans-selective ID-123V (E. coli produced version of ID-142V) and the cis/trans potent ID-112V (E. coli produced version of ID-144V, but for ID-112V lacking N82Y relative to ID-144V) were compared against tocilizumab in a Biacore study. The ICVDs were fixed to the Biacore sensor plate and soluble human IL-6R was flowed over the plate to detect binding.
# [25] = target: T1, membrane-bound human IL-6R on TF-1 cells; assay: cell-based or functional assay; remark: listed apart in the source
# [26] = target: T2, recombinant soluble human IL-6R; assay: standard gp130 ELISA (competition), Experiment 2; 10 ng/mL IL-6R, 50 ng/mL IL-6
# Protocol: as §4
molecule,measurement,setting,value
tocilizumab Fab,IC50 of inhibition of IL-6-induced TF-1 cell proliferation,[1],15900 pM
same,IC50,[2],1130 pM
same,IC50,[3],704 pM
same,Ratio of human IC50 to cynomolgus IC50,[4],0.6
B1,IC50 of inhibition of IL-6-induced TF-1 cell proliferation,[5],500 pM
same,IC50,[6],160 pM
same,IC50,[3],424 pM
same,IC50,[7],110 pM
same,Ratio Cyno IC50/human IC50 (title: human IC50 divided by cynomolgous IC50),[8],1.2
same,IC50,[9],150 pM
same,IC50,[10],342 pM
same,"IC50 in TF1 assay (separate assay, raised background)",[11],3000 pM
B2,IC50,[6],300 pM
same,fold less potent than 7F6,[12],~2 fold
same,"IC50 in TF1 assay (separate assay, raised background)",[11],11000 pM
B3,"M1 cellular assay EC50 (20 ng/ml IL-6R, 100 ng/ml IL-6)",[13],5360 pM
same,TF-1 cell assay EC50 (5 ng/ml IL-6),[14],690 pM
same,Potency in the TF-1 assay,[14]; scale: not given,0.69
same,IC50,[15],970 pM
same,Kd,[16],390 pM
same,EC50,[17],1830 pM
same,TF-1 cell assay EC50 (5 ng/ml IL-6),[18],1120 pM
B4,binding result,[19],binds
B5,EC50,[20],138 pM
same,"M1 cellular assay EC50 (20 ng/ml IL-6R, 100 ng/ml IL-6)",[21],520 pM
same,TF-1 cell assay EC50 (5 ng/ml IL-6),[22],290 pM
B6,EC50,[20],150 pM
same,TF-1 cell assay EC50 (5 ng/ml IL-6),[23],180 pM
same,"M1 cellular assay EC50 (20 ng/ml IL-6R, 100 ng/ml IL-6)",[21],550 pM
same,Kd,[24],40 pM
B7,TF-1 cell assay EC50 (5 ng/ml IL-6),[25],4500 pM
same,"M1 cellular assay EC50 (20 ng/ml IL-6R, 100 ng/ml IL-6)",[21],4200 pM
same,EC50,[26],498 pM
same,Kd,[24],1100 pM
